{"source": "patent US20180169177A1", "about": "“POLYPEPTIDE SPECIFICALLY BINDING TO CD34 MOLECULE AND USE THEREOF” (Guangzhou Yidai Pharmaceutical Co., Ltd., priority 2015, published 2018)", "key": {"[1]": {"molecular_target": "T1, CD34 molecules of K562 leukemia cells (Homo sapiens, UniProt P28906)", "T1 construct": "endogenous in cells; host or cells: K562", "T1 sequence (P28906 32-385)": "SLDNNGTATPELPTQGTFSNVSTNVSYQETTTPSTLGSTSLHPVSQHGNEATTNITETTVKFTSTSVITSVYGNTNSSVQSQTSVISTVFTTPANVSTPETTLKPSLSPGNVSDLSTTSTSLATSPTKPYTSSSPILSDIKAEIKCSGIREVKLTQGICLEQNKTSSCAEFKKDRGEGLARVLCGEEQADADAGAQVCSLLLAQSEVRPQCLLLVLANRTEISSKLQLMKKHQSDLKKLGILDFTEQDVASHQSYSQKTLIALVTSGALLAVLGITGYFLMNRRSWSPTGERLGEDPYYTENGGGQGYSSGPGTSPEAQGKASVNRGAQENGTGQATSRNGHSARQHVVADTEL", "test": "Co-immunoprecipitation of CD34 binding polypeptide, fluorescence intensity by fluorospectrophotometer", "conditions": "2b; for binding of polypeptide to protein co-immunoprecipitated with CD34 antibodies (fluorescence intensity): K562 total protein, CD34 antibody co-immunoprecipitation, NanoDrop 3300, FIGS. 2a", "protocol": "(1) extracting total protein: wash K562 cell once with pre-cooled PBS buffer solution, remove the PBS, add 500 μL non-denatured protein lysate containing protease inhibitor into the culture dish, collect cells into a 1.5 mL centrifuge tube, perform ultra sonication for 4 times, 4 seconds each time, leave them on the ice for 30 minutes, and centrifuge them at 8000 rpm at 4° C. for 20 minutes, transfer the supernatant into a new centrifuge tube to obtain total protein products;\n(2) pretreatment of cellular total protein: add 50 μL confining liquid of normal goat serum into the cellular total protein products, and incubate them on the ice for 1 hour, then add 100 μL G-protein microsphere suspension (Calbiochem), incubate them at 4° C. for 20 minutes, centrifuge and remove the G-protein microsphere.\n(3) Co- immunoprecipitation: add CD34 antibodies (AR) into the total protein pretreated in step (2), take it as experimental groups, set control groups, wherein equal amount of PBS antibody diluent is added, and incubate them at 4° C. for 8 hours;\n(4) Binding of polypeptides and purification of G-protein antibodies: add polypeptides 17 and 19 into respective experimental groups and control group respectively, meanwhile add G-protein microsphere suspension, and incubate them at 4° C. for 4 hours;\n(5) Washing and elution: centrifuge at 4° C. to remove the supernatant, use washing liquor to wash for three times, centrifuge and remove the supernatant, add 2× SDS buffer solution in a volume the same as that of G-protein microsphere, treat them at 50° C. for 10 minutes, centrifuge and remove the microspheres, transfer the supernatant into a new EP tube, and add DTT (dithiothreitol) until the final concentration is 100 mM;\n(6) Testing fluorescence intensities of experimental groups and control groups using micro fluorospectro photometer (NanoDrop 3300)."}, "[2]": {"molecular_target": "T2, CD34 molecules in K562 leukemia cells (Homo sapiens, UniProt P28906)", "T2 construct": "endogenous in cells; host or cells: K562", "T2 sequence (P28906 32-385)": "T1 sequence (P28906 32-385)", "test": "Immunofluorescence co-localisation of CD34 binding polypeptide and CD34 antibodies", "conditions": "fixed K562 cells, confocal microscope, FIGS. 3a, 3b", "protocol": "(1) Preparation of cells: incubate K562 cell suspension in an incubator (37° C., 5% CO2). When the cell density reaches 80%, centrifuge and remove the culture solution, wash it once using PBS buffer solution, centrifuge it, take the cell suspension and drop it onto a glass slide coated with polylysine, and use cold acetone to fix for 10 minutes after drying.\n(2) Use PBS buffer solution to wash for three times, 5 minutes each time, and then use 5% BSA confining liquid to seal it at room temperature for 1 hour.\n(3) Incubation of primary antibodies: drop the primary antibody diluent of CD34 antibodies (AR) onto a slide, incubate it at 4° C. over night. Use PBS buffer solution to wash it for three times, 5 minutes each time.\n(4) Incubation of second antibodies and binding to polypeptide: add polypeptides 17 and 19 into diluted anti-rabbit antibodies labeled by Alexa Fluor 561 respectively, drop them onto cover glasses, incubate them at room temperature and keep shielded from light for 1 hour. Use PBS buffer solution to wash for three times, 5 minutes each time.\n(5) Use 1 μg/mL DAPI to stain at room temperature and keep shielded from light for 5 minutes, use PBS buffer solution to wash it for three times, 5 minutes each time.\n(6) After mounting with anti-fluorescence quenching agent, use laser scanning confocal microscope to observe and photograph."}, "K562 cells [3]": {"system": "K562 cells", "test": "Effect of CD34 binding polypeptide on adhesion of CD34 positive cells", "format": "cell-based", "conditions": "2 μg/mL polypeptide, 6 hours, plates of FN, Collagen I and Mareigel, versus control NC, FIG. 4", "protocol": "Add the polypeptides 17 and 19 into incubating holes to set respective experimental groups (final concentration of polypeptide is 2 μg/mL)."}, "[4]": {"system": "CD34 negative cells (peripheral blood cells)", "test": "Magnetic separation, binding to CD34 negative blood cells", "format": "cell-based", "conditions": "other blood cells", "protocol": "Mix polypeptides 17 and 19 adhering to the surfaces of nano-magnetic beads respectively with K562 cells and peripheral blood cells, and incubate them for 1 hour. Use magnetic sorter to sort, and the sorting efficiency of K562 cells is higher than 95%. […] A schematic diagram of the example is shown in FIG. 5, and the specific operation for magnetic separation of the example can be performed according to conventional magnetic techniques in the art."}, "MNNG/HOS cells": {"system": "MNNG/HOS cells", "test": "Binding between CD34 binding polypeptide and human osteosarcoma cell line MNNG/HOS", "format": "cell-based", "conditions": "2 μg/ml, 37° C., 2 hours, CD34 negative cell line, fluorescence microscope", "protocol": "Add 2 μg/ml polypeptides 17 and 19 into two culture dishes of well-grown MNNG/HOS cells (density of 80%) respectively, incubate them in an incubator at 37° C. for 2 hours, remove the culture solution, use 1 ml PBS to wash them for 3 times, add 5 ml culture solution, and use a fluorescence microscope to observe the binding between polypeptide and MNNG/HOS cells."}, "K562 cells [5]": {"system": "K562 cells", "test": "Effect of CD34 binding polypeptide on proliferation of K562 cells", "format": "cell-based", "conditions": "2 μg/ml polypeptide, replenished every 48 hours, counted for 6 days, FIG. 9", "protocol": "(1) Inoculate well-grown K562 cells in a 24-hole plate in cell concentration of 6000/ml/hole; set two experimental groups, wherein polypeptides 17 and 19 (polypeptide concentration is 2 μg/ml) are added into culture solutions respectively; set control groups, wherein polypeptide diluent in the same amount of polypeptide is added into the culture solution.\n(2) Count once every 24 hours, replenish CD34 binding polypeptide (polypeptide concentration is 2 μg/ml) once every 48 hours, and the counting lasts for 6 days; repeat the experiment three times;\n(3) draw cell growth curves, wherein the Y-axis is indicative of mean value of cell density each day, the X-axis is indicative of incubation time."}, "[6]": {"system": "ductal epithelial cells and vascular endothelial cells of salivary gland", "test": "Immunofluorescence binding to salivary gland tissue sections", "format": "cell-based, human", "conditions": "2 μg/mL polypeptide, 1 hour, room temperature, 6 μm frozen sections, FIG. 6a", "protocol": "In the example, immunofluorescence is used to test the binding between polypeptide and ductal epithelial cells and vascular endothelial cells of salivary gland.\nEmbed the human salivary gland tissues with OCT, and slice them in a thickness of 6 μm at −20° C., fix with acetone for 15 minutes, use PBS to wash them for three times, 5 minutes each time. Incubate them with 2 μg/mL CD34 binding polypeptide (polypeptide 17) at room temperature for 1 hour, use PBS to wash for three times, 10 minutes each time. Drop 20 μL anti-fluorescence quenching agent for mounting, and preserve them being protected from light at 4° C., fluorescence microscope is used to observe and photograph."}}, "data": [{"substance": "polypeptide 19: synthetic CD34 binding polypeptide displayed by phage 19, amino acid sequence SEQ ID NO: 2 (SSLGWWGPRRDFPGRRERIYLGIPWLSLLGSGAPSPV; Non-antibody binding protein capable of binding CD34)", "values": [{"measurement": "binding of polypeptide to protein co-immunoprecipitated with CD34 antibodies (fluorescence intensity)", "setting": "[1]", "result": "can specifically bind"}, {"measurement": "binding specificity, comparison between polypeptides", "setting": "[1]; co-immunoprecipitation with CD34 antibodies, FIGS. 2a", "result": "better binding specificity than the polypeptide 17"}, {"measurement": "binding to CD34 molecules (overlap of polypeptide green fluorescence and CD34 antibody red fluorescence)", "setting": "[2]", "result": "have bound to CD34 molecules"}, {"measurement": "adhesion of K562 cells (count of adherent cells)", "setting": "K562 cells [3]", "result": "inhibit the adhesion of K562 cells significantly, especially the culture solution containing the polypeptide 19"}, {"measurement": "binding to CD34 negative cells", "setting": "[4]", "result": "won't bind to CD34 negative cells"}, {"measurement": "binding between fluorescent polypeptide and MNNG/HOS cells", "setting": "MNNG/HOS cells", "result": "No binding"}, {"measurement": "proliferation rate of K562 leukemia cells versus control group", "setting": "K562 cells [5]", "result": "no significant difference"}]}, {"substance": "polypeptide 17: synthetic CD34 binding polypeptide displayed by phage 17, amino acid sequence SEQ ID NO: 1 (SSFASKKGYPFNRMCAS; Non-antibody binding protein capable of binding to CD34)", "values": [{"measurement": "binding of polypeptide to protein co-immunoprecipitated with CD34 antibodies (fluorescence intensity)", "setting": "[1]", "result": "can specifically bind"}, {"measurement": "binding to CD34 molecules (overlap of polypeptide green fluorescence and CD34 antibody red fluorescence)", "setting": "[2]", "result": "have bound to CD34 molecules"}, {"measurement": "adhesion of K562 cells (count of adherent cells)", "setting": "K562 cells [3]", "result": "inhibit the adhesion of K562 cells significantly"}, {"measurement": "binding to CD34 negative cells", "setting": "[4]", "result": "won't bind to CD34 negative cells"}, {"measurement": "binding to ductal epithelial cells and vascular endothelial cells of salivary gland tissue", "setting": "[6]", "result": "bind to ductal epithelial cells and vascular endothelial cells of salivary gland tissue"}, {"measurement": "binding between fluorescent polypeptide and MNNG/HOS cells", "setting": "MNNG/HOS cells", "result": "No binding"}, {"measurement": "proliferation rate of K562 leukemia cells versus control group", "setting": "K562 cells [5]", "result": "no significant difference"}]}]}
